In patent publication US20260049138A1 (Chugai, published 2026):

target: T1, CD3ε homodimer protein (human, UniProt P07766 23-126, limits assumed); experiment: SPR Biacore T200, CD3ε homodimer on chip;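 further: Light-chain single-residue variant antibodies injected over amine-coupled CD3ε homodimer on a CM4 chip at 25 °C, bound amount divided by that of the GLS3000-containing antibody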
T1 construct: also called CD3 (CD3ε)
T1 sequence (P07766 23-126 limits assumed): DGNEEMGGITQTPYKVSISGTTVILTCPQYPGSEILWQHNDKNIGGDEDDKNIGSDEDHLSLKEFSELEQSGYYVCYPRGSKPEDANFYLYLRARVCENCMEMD
Method: Each one-amino acid altered form constructed, expressed, and purified in the paragraph (6-2) was evaluated using Biacore T200 (GE Healthcare Japan Corp.). An appropriate amount of CD3ε homodimer protein was immobilized onto Sensor chip CM4 (GE Healthcare Japan Corp.) by the amine coupling method. Then, the antibody having an appropriate concentration was injected thereto as an analyte and allowed to interact with the CD3ε homodimer protein on the sensor chip. Then, the sensor chip was regenerated by the injection of 10 mmol/L glycine-HCl (pH 1.5). The assay was conducted at 25° C., and HBS-EP+ (GE Healthcare Japan Corp.) was used as a running buffer. […] Each parameter was calculated using Biacore T200 Evaluation Software (GE Healthcare Japan Corp.).
Specifically, when the amount of the GLS3000-containing antibody bound was defined as X and the amount of the L chain one-amino acid altered form bound was defined as Y, a value of Z (ratio of amounts bound)=Y/X was used.

ratio of amount bound vs unaltered GLS3000 | Binder
0.18 | GLS3000 K50Q one-arm antibody (antibody, human IgG1, kappa, L234A L235A, N297A, name in Kabat numbering) heavy: QVQLVESGGGVVQPGRSLRLSCAASGFTFSNAWMHWVRQAPGKGLEWVAQIKAKSNNYATYYAESVKGRFTISRDDSKNSLYLQMNSLKTEDTAVYYCRYVHYGAYYGVDAWGQGTTVTVSSASTKGPSVFPLAPSSKSTSGGTAALGCLVKDYFPEPVTVSWNSGALTSGVHTFPAVLQSSGLYSLSSVVTVPSSSLGTQTYICNVNHKPSNTKVDKKVEPKSCDKTHTCPPCPAPEAAGGPSVFLFPPKPKDTLMISRTPEVTCVVVDVSHEDPEVKFNWYVDGVEVHNAKTKPREEQYASTYRVVSVLTVLHQDWLNGKEYKCKVSNKALPAPIEKTISKAKGQPREPQVYTLPPSRCELTKNQVSLSCAVKGFYPSDIAVEWESNGQPENNYKTTPPVLDSDGSFFLVSKLTVDKSRWQQGNVFSCSVMHEALHNHYTQKSLSLSPDYKDDDDK EPKSSDKTHTCPPCPAPELLGGPSVFLFPPKPKDTLMISRTPEVTCVVVDVSHEDPEVKFNWYVDGVEVHNAKTKPREEQYNSTYRVVSVLTVLHQDWLNGKEYKCKVSNKALPAPIEKTISKAKGQPREPQVCTLPPSRDELTKNQVSLWCLVKGFYPSDIAVEWESNGQPENNYKTTPPVLDSDGSFFLYSKLTVDKSRWQQGNVFSCSVMHEALHNRYTQKSLSLSP light: DIVMTQSPLSLPVTPGEPASISCRSSQSLVHSNRNTYLHWYQQKPGQAPRLLIYQVSNRFSGVPDRFSGSGSGTDFTLKISRVEAEDVGVYYCGQGTQVPYTFGQGTKLEIKRTVAAPSVFIFPPSDEQLKSGTASVVCLLNNFYPREAKVQWKVDNALQSGNSQESVTEQDSKDSTYSLSSTLTLSKADYEKHKVYACEVTHQGLSSPVTKSFNRGEC
0.24 | GLS3000 K50Y one-arm antibody (antibody, human IgG1, kappa, L234A L235A, N297A, name in Kabat numbering) heavy: QVQLVESGGGVVQPGRSLRLSCAASGFTFSNAWMHWVRQAPGKGLEWVAQIKAKSNNYATYYAESVKGRFTISRDDSKNSLYLQMNSLKTEDTAVYYCRYVHYGAYYGVDAWGQGTTVTVSSASTKGPSVFPLAPSSKSTSGGTAALGCLVKDYFPEPVTVSWNSGALTSGVHTFPAVLQSSGLYSLSSVVTVPSSSLGTQTYICNVNHKPSNTKVDKKVEPKSCDKTHTCPPCPAPEAAGGPSVFLFPPKPKDTLMISRTPEVTCVVVDVSHEDPEVKFNWYVDGVEVHNAKTKPREEQYASTYRVVSVLTVLHQDWLNGKEYKCKVSNKALPAPIEKTISKAKGQPREPQVYTLPPSRCELTKNQVSLSCAVKGFYPSDIAVEWESNGQPENNYKTTPPVLDSDGSFFLVSKLTVDKSRWQQGNVFSCSVMHEALHNHYTQKSLSLSPDYKDDDDK EPKSSDKTHTCPPCPAPELLGGPSVFLFPPKPKDTLMISRTPEVTCVVVDVSHEDPEVKFNWYVDGVEVHNAKTKPREEQYNSTYRVVSVLTVLHQDWLNGKEYKCKVSNKALPAPIEKTISKAKGQPREPQVCTLPPSRDELTKNQVSLWCLVKGFYPSDIAVEWESNGQPENNYKTTPPVLDSDGSFFLYSKLTVDKSRWQQGNVFSCSVMHEALHNRYTQKSLSLSP light: DIVMTQSPLSLPVTPGEPASISCRSSQSLVHSNRNTYLHWYQQKPGQAPRLLIYYVSNRFSGVPDRFSGSGSGTDFTLKISRVEAEDVGVYYCGQGTQVPYTFGQGTKLEIKRTVAAPSVFIFPPSDEQLKSGTASVVCLLNNFYPREAKVQWKVDNALQSGNSQESVTEQDSKDSTYSLSSTLTLSKADYEKHKVYACEVTHQGLSSPVTKSFNRGEC
0.19 | GLS3000 K50T one-arm antibody (antibody, human IgG1, kappa, L234A L235A, N297A, name in Kabat numbering) heavy: QVQLVESGGGVVQPGRSLRLSCAASGFTFSNAWMHWVRQAPGKGLEWVAQIKAKSNNYATYYAESVKGRFTISRDDSKNSLYLQMNSLKTEDTAVYYCRYVHYGAYYGVDAWGQGTTVTVSSASTKGPSVFPLAPSSKSTSGGTAALGCLVKDYFPEPVTVSWNSGALTSGVHTFPAVLQSSGLYSLSSVVTVPSSSLGTQTYICNVNHKPSNTKVDKKVEPKSCDKTHTCPPCPAPEAAGGPSVFLFPPKPKDTLMISRTPEVTCVVVDVSHEDPEVKFNWYVDGVEVHNAKTKPREEQYASTYRVVSVLTVLHQDWLNGKEYKCKVSNKALPAPIEKTISKAKGQPREPQVYTLPPSRCELTKNQVSLSCAVKGFYPSDIAVEWESNGQPENNYKTTPPVLDSDGSFFLVSKLTVDKSRWQQGNVFSCSVMHEALHNHYTQKSLSLSPDYKDDDDK EPKSSDKTHTCPPCPAPELLGGPSVFLFPPKPKDTLMISRTPEVTCVVVDVSHEDPEVKFNWYVDGVEVHNAKTKPREEQYNSTYRVVSVLTVLHQDWLNGKEYKCKVSNKALPAPIEKTISKAKGQPREPQVCTLPPSRDELTKNQVSLWCLVKGFYPSDIAVEWESNGQPENNYKTTPPVLDSDGSFFLYSKLTVDKSRWQQGNVFSCSVMHEALHNRYTQKSLSLSP light: DIVMTQSPLSLPVTPGEPASISCRSSQSLVHSNRNTYLHWYQQKPGQAPRLLIYTVSNRFSGVPDRFSGSGSGTDFTLKISRVEAEDVGVYYCGQGTQVPYTFGQGTKLEIKRTVAAPSVFIFPPSDEQLKSGTASVVCLLNNFYPREAKVQWKVDNALQSGNSQESVTEQDSKDSTYSLSSTLTLSKADYEKHKVYACEVTHQGLSSPVTKSFNRGEC
0.23 | GLS3000 K50S one-arm antibody (antibody, human IgG1, kappa, L234A L235A, N297A, name in Kabat numbering) heavy: QVQLVESGGGVVQPGRSLRLSCAASGFTFSNAWMHWVRQAPGKGLEWVAQIKAKSNNYATYYAESVKGRFTISRDDSKNSLYLQMNSLKTEDTAVYYCRYVHYGAYYGVDAWGQGTTVTVSSASTKGPSVFPLAPSSKSTSGGTAALGCLVKDYFPEPVTVSWNSGALTSGVHTFPAVLQSSGLYSLSSVVTVPSSSLGTQTYICNVNHKPSNTKVDKKVEPKSCDKTHTCPPCPAPEAAGGPSVFLFPPKPKDTLMISRTPEVTCVVVDVSHEDPEVKFNWYVDGVEVHNAKTKPREEQYASTYRVVSVLTVLHQDWLNGKEYKCKVSNKALPAPIEKTISKAKGQPREPQVYTLPPSRCELTKNQVSLSCAVKGFYPSDIAVEWESNGQPENNYKTTPPVLDSDGSFFLVSKLTVDKSRWQQGNVFSCSVMHEALHNHYTQKSLSLSPDYKDDDDK EPKSSDKTHTCPPCPAPELLGGPSVFLFPPKPKDTLMISRTPEVTCVVVDVSHEDPEVKFNWYVDGVEVHNAKTKPREEQYNSTYRVVSVLTVLHQDWLNGKEYKCKVSNKALPAPIEKTISKAKGQPREPQVCTLPPSRDELTKNQVSLWCLVKGFYPSDIAVEWESNGQPENNYKTTPPVLDSDGSFFLYSKLTVDKSRWQQGNVFSCSVMHEALHNRYTQKSLSLSP light: DIVMTQSPLSLPVTPGEPASISCRSSQSLVHSNRNTYLHWYQQKPGQAPRLLIYSVSNRFSGVPDRFSGSGSGTDFTLKISRVEAEDVGVYYCGQGTQVPYTFGQGTKLEIKRTVAAPSVFIFPPSDEQLKSGTASVVCLLNNFYPREAKVQWKVDNALQSGNSQESVTEQDSKDSTYSLSSTLTLSKADYEKHKVYACEVTHQGLSSPVTKSFNRGEC
0.84 | GLS3000 K74T one-arm antibody (antibody, human IgG1, kappa, L234A L235A, N297A, name in Kabat numbering) heavy: QVQLVESGGGVVQPGRSLRLSCAASGFTFSNAWMHWVRQAPGKGLEWVAQIKAKSNNYATYYAESVKGRFTISRDDSKNSLYLQMNSLKTEDTAVYYCRYVHYGAYYGVDAWGQGTTVTVSSASTKGPSVFPLAPSSKSTSGGTAALGCLVKDYFPEPVTVSWNSGALTSGVHTFPAVLQSSGLYSLSSVVTVPSSSLGTQTYICNVNHKPSNTKVDKKVEPKSCDKTHTCPPCPAPEAAGGPSVFLFPPKPKDTLMISRTPEVTCVVVDVSHEDPEVKFNWYVDGVEVHNAKTKPREEQYASTYRVVSVLTVLHQDWLNGKEYKCKVSNKALPAPIEKTISKAKGQPREPQVYTLPPSRCELTKNQVSLSCAVKGFYPSDIAVEWESNGQPENNYKTTPPVLDSDGSFFLVSKLTVDKSRWQQGNVFSCSVMHEALHNHYTQKSLSLSPDYKDDDDK EPKSSDKTHTCPPCPAPELLGGPSVFLFPPKPKDTLMISRTPEVTCVVVDVSHEDPEVKFNWYVDGVEVHNAKTKPREEQYNSTYRVVSVLTVLHQDWLNGKEYKCKVSNKALPAPIEKTISKAKGQPREPQVCTLPPSRDELTKNQVSLWCLVKGFYPSDIAVEWESNGQPENNYKTTPPVLDSDGSFFLYSKLTVDKSRWQQGNVFSCSVMHEALHNRYTQKSLSLSP light: DIVMTQSPLSLPVTPGEPASISCRSSQSLVHSNRNTYLHWYQQKPGQAPRLLIYKVSNRFSGVPDRFSGSGSGTDFTLTISRVEAEDVGVYYCGQGTQVPYTFGQGTKLEIKRTVAAPSVFIFPPSDEQLKSGTASVVCLLNNFYPREAKVQWKVDNALQSGNSQESVTEQDSKDSTYSLSSTLTLSKADYEKHKVYACEVTHQGLSSPVTKSFNRGEC
0.5 | GLS3000 K50R one-arm antibody (antibody, human IgG1, kappa, L234A L235A, N297A, name in Kabat numbering) heavy: QVQLVESGGGVVQPGRSLRLSCAASGFTFSNAWMHWVRQAPGKGLEWVAQIKAKSNNYATYYAESVKGRFTISRDDSKNSLYLQMNSLKTEDTAVYYCRYVHYGAYYGVDAWGQGTTVTVSSASTKGPSVFPLAPSSKSTSGGTAALGCLVKDYFPEPVTVSWNSGALTSGVHTFPAVLQSSGLYSLSSVVTVPSSSLGTQTYICNVNHKPSNTKVDKKVEPKSCDKTHTCPPCPAPEAAGGPSVFLFPPKPKDTLMISRTPEVTCVVVDVSHEDPEVKFNWYVDGVEVHNAKTKPREEQYASTYRVVSVLTVLHQDWLNGKEYKCKVSNKALPAPIEKTISKAKGQPREPQVYTLPPSRCELTKNQVSLSCAVKGFYPSDIAVEWESNGQPENNYKTTPPVLDSDGSFFLVSKLTVDKSRWQQGNVFSCSVMHEALHNHYTQKSLSLSPDYKDDDDK EPKSSDKTHTCPPCPAPELLGGPSVFLFPPKPKDTLMISRTPEVTCVVVDVSHEDPEVKFNWYVDGVEVHNAKTKPREEQYNSTYRVVSVLTVLHQDWLNGKEYKCKVSNKALPAPIEKTISKAKGQPREPQVCTLPPSRDELTKNQVSLWCLVKGFYPSDIAVEWESNGQPENNYKTTPPVLDSDGSFFLYSKLTVDKSRWQQGNVFSCSVMHEALHNRYTQKSLSLSP light: DIVMTQSPLSLPVTPGEPASISCRSSQSLVHSNRNTYLHWYQQKPGQAPRLLIYRVSNRFSGVPDRFSGSGSGTDFTLKISRVEAEDVGVYYCGQGTQVPYTFGQGTKLEIKRTVAAPSVFIFPPSDEQLKSGTASVVCLLNNFYPREAKVQWKVDNALQSGNSQESVTEQDSKDSTYSLSSTLTLSKADYEKHKVYACEVTHQGLSSPVTKSFNRGEC
